How the values were obtained:
[1] = Enzyme kinetics of purified wild type and mutant PAL, PAL activity (spectrophotometric); type: biochemical; conditions: phenylalanine as substrate
Method: (§1) The PAL or TAL activity of the purified enzymes were measured using a spectrophotometer according to Abell et al., “Phenylalanine Ammonia-lyase from Yeast Rhodotorula glutinis,” Methods Enzymol. 142:242-248 (1987). The spectrophotometric assay for PAL determination was initiated by the addition of the enzyme to a solution containing 1.0 mM L-phenylalanine and 50 mM Tris-HCl (pH 8.5). The reaction was then followed by monitoring the absorbance of the product, cinnamic acid, at 290 nm using a molar extinction coefficient of 9000 cm^−1. The assay was run over a 5 min period using an amount of enzyme that produced absorbance changes in the range of 0.0075 to 0.018/min. One unit of activity indicated deamination of 1.0 μmol of phenylalanine to cinnamic acid per minute. The TAL activity was similarly measured using tyrosine in the reaction solution. The absorbance of the para-hydroxycinnamic acid produced was followed at 315 nm and the activity was determined using an extinction coefficient of 10,000 cm^−1 for PHCA. One unit of activity indicated deamination of 1.0 μmol of tyrosine to para-hydroxycinnamic acid per minute.
(§2) A detailed enzyme kinetics analysis using the yeast wild type and the purified mutant PAL enzyme and tyrosine or phenylalanine as substrate, was carried out. The PAL and TAL activities were measured spectrophotometrically as described in the General Methods and the KM and Vmax were determined from its Lineweaver-Burke plot. The kcat was calculated from Vmax assuming the presence of four active sites in the active tetramer.

[2] = Enzyme kinetics of purified wild type and mutant PAL, TAL activity (spectrophotometric); type: biochemical; conditions: tyrosine as substrate
Method: as §1, §2

[3] = Whole cell PAL/TAL activity of colonies from the selection plates; type: cell-based, E. coli; conditions: whole cell assay
Method: An HPLC assay was developed for measuring the levels of cinnamic acid and PHCA formed by the whole cells. In a typical assay, following centrifugation of a culture grown in the medium of choice, 20-1000 μL of the supernatant was acidified with phosphoric acid, filtered through a 0.2 or 0.45 micron filter and analyzed by the HPLC to determine the concentration of PHCA and cinnamic acid in the growth medium. Alternatively, following centrifugation, the cells were resuspended in 100 mM Tris-HCl (pH 8.5) containing 1.0 mM tyrosine or 1.0 mM phenylalanine and incubated at room temperature for 1.0-16 h. A filtered aliquot (20-1000 μL) of this suspension was then analyzed.
The colonies that had appeared on the selection plates were analyzed for their PAL/TAL activity using the whole cell assay described in the general methods. […] Genetic analysis for the EP18Km-6 mutant was carried out. The plasmid DNA was purified from the mutant cells, and then re-transformed into E. coli. […] To better characterize the mutants, the following analyses were carried out.

[4] = Whole cell TAL/PAL activity ratio (follow-up assay after high throughput screen); type: cell-based, E. coli
Method: The following assay was performed to confirm that fully active mutant PAL enzyme was produced in BL21(DE3) E. coli cells. E. coli cells were grown in LB medium overnight. One mL of cell culture was pelleted and resuspended in 1 mL of 50 mM Tris-HCl buffer (pH 8.5) containing 0.5 mM tyrosine (for TAL activity measurement) or phenylalanine (for PAL activity measurement). The reaction mixture was incubated on the shaker at 37 C. for 1 hr. The reaction mixture was filtrated using 0.2 μm pore size filter (Millipore, Bedford, Mass.), and injected into HPLC (Hewlett-Packard Company, Palo Alto, Calif.). TAL or PAL activity was determined by measuring the concentration of the resulting PHCA or cinnamate. […]
5,000 mutant colonies were picked from agarose plates and screened by high throughput assay (Example 20). The initial hits were further investigated by a follow-up assay to confirm screening results. The TAL and PAL activities were measured using the whole cell assay, described in Example 17, and then ratio of TAL/PAL activities was calculated. The following table summarizes results of the follow-up assay for four mutants with altered TAL/PAL ratios:
A total of 5,000 mutant colonies from these three libraries were screened by high throughput assay (Example 20). Initial hits were further investigated by a follow-up HPLC assay to confirm the screening results as described in Example 21. One mutant with improved TAL/PAL ratio was found (Table 19).

[5] = Ratio of TAL to PAL catalytic efficiency of purified enzymes; type: biochemical
Method: as §2
The catalytic efficiency, defined as kcat/KM, was calculated for both the wild type and mutant enzyme. The ratio of the TAL catalytic efficiency versus the PAL of the wild type enzyme was 0.5 while that of the mutant enzymes had increased to 1.7 (see Table 11).

[6] = Whole cell TAL activity assay (HPLC) in BL21(DE3) E. coli cells; type: cell-based; conditions: for TAL Activity (%): 0.5 mM tyrosine, 37 C, 1 hr
Method: The following assay was performed to confirm that fully active mutant PAL enzyme was produced in BL21(DE3) E. coli cells. E. coli cells were grown in LB medium overnight. One mL of cell culture was pelleted and resuspended in 1 mL of 50 mM Tris-HCl buffer (pH 8.5) containing 0.5 mM tyrosine (for TAL activity measurement) or phenylalanine (for PAL activity measurement). The reaction mixture was incubated on the shaker at 37 C. for 1 hr. The reaction mixture was filtrated using 0.2 μm pore size filter (Millipore, Bedford, Mass.), and injected into HPLC (Hewlett-Packard Company, Palo Alto, Calif.). TAL or PAL activity was determined by measuring the concentration of the resulting PHCA or cinnamate.
The truncation mutants were analyzed by measuring TAL activity using the whole cell assay described in Example 17. Table 15 summarizes the results:
The C-terminal truncation mutant was analyzed by measuring TAL and PAL activities using the whole cell assay described in Example 17, and pET17b-Km-6 was used as positive control.

[7] = Hanson and Havir 1981; cited from earlier work
[8] = from Vmax assuming four active sites

B1: EP18Km-6: mutant R. glutinis PAL enzyme having enhanced TAL activity, Ile540Thr, SEQ ID NO:10 (protein)
chain: MAPSLDSISHSFANGVASAKQAVNGASTNLAVAGSHLPTTQVTQVDIVEKMLAAPTDSTLELDGYSLNLGDVVSAARKGRPVRVKDSDEIRSKIDKSVEFLRSQLSMSVYGVTTGFGGSADTRTEDAISLQKALLEHQLCGVLPSSFDSFRLGRGLENSLPLEVVRGAMTIRVNSLTRGHSAVRLVVLEALTNFLNHGITPIVPLRGTISASGDLSPLSYIAAAISGHPDSKVHVVHEGKEKILYAREAMALFNLEPVVLGPKEGLGLVNGTAVSASMATLALHDAHMLSLLSQSLTAMTVEAMVGHAGSFHPFLHDVTRPHPTQIEVAGNIRKLLEGSRFAVHHEEEVKVKDDEGILRQDRYPLRTSPQWLGPLVSDLIHAHAVLTIEAGQSTTDNPLIDVENKTSHHGGNFQAAAVANTMEKTRLGLAQIGKLNFTQLTEMLNAGMNRGLPSCLAAEDPSLSYHCKGLDIAAAAYTSELGHLANPVTTHVQPAEMANQAVNSLALISARRTTESNDVLSLLLATHLYCVLQAIDLRATEFEFKKQFGPAIVSLIDQHFGSAMTGSNLRDELVEKVNKTLAKRLEQTNSYDLVPRWHDAFSFAAGTVVEVLSSTSLSLAAVNAWKVAAAESAISLTRQVRETFWSAASTSSPALSYLSPRTQILYAFVREELGVKARRGDVFLGKQEVTIGSNVSKIYEAIKSGRINNVLLKMLA
[1]; Lineweaver-Burke plot
  Km: 333 µM
[1]; [8]
  kcat: 2.45 s⁻¹
[2]; Lineweaver-Burke plot
  Km: 50 µM
[2]; [8]
  kcat: 0.63 s⁻¹
[3]
  TAL activity ratio versus wild type cell: enhanced TAL activity ratio
[4]; regional mutants amino acid No. 120-280, Table 17
  TAL/PAL ratio: 1.7
[4]; summary table of mutants
  TAL/PAL ratio: 1.7
[5]
  TAL/PAL ratio (catalytic efficiency): 1.7
[6]; BL21(DE3) E. coli cells
  TAL/PAL activity of enzyme expressed from pET17b: fully active
[6]; C-terminal truncation mutant in pET17b
  TAL Activity (%): 100%
[6]; N-terminus truncation mutants in pET17b
  TAL Activity (%): 100%

B2: Rhodosporidium: PAL/TAL enzyme of the yeast Rhodosporidium, literature value (protein)
chain: MAPSLDSISHSFANGVASAKQAVNGASTNLAVAGSHLPTTQVTQVDIVEKMLAAPTDSTLELDGYSLNLGDVVSAARKGRPVRVKDSDEIRSKIDKSVEFLRSQLSMSVYGVTTGFGGSADTRTEDAISLQKALLEHQLCGVLPSSFDSFRLGRGLENSLPLEVVRGAMTIRVNSLTRGHSAVRLVVLEALTNFLNHGITPIVPLRGTISASGDLSPLSYIAAAISGHPDSKVHVVHEGKEKILYAREAMALFNLEPVVLGPKEGLGLVNGTAVSASMATLALHDAHMLSLLSQSLTAMTVEAMVGHAGSFHPFLHDVTRPHPTQIEVAGNIRKLLEGSRFAVHHEEEVKVKDDEGILRQDRYPLRTSPQWLGPLVSDLIHAHAVLTIEAGQSTTDNPLIDVENKTSHHGGNFQAAAVANTMEKTRLGLAQIGKLNFTQLTEMLNAGMNRGLPSCLAAEDPSLSYHCKGLDIAAAAYTSELGHLANPVTTHVQPAEMANQAVNSLALISARRTTESNDVLSLLLATHLYCVLQAIDLRAIEFEFKKQFGPAIVSLIDQHFGSAMTGSNLRDELVEKVNKTLAKRLEQTNSYDLVPRWHDAFSFAAGTVVEVLSSTSLSLAAVNAWKVAAAESAISLTRQVRETFWSAASTSSPALSYLSPRTQILYAFVREELGVKARRGDVFLGKQEVTIGSNVSKIYEAIKSGRINNVLLKMLA
[7]
  ratio of TAL catalytic activity to PAL catalytic activity: approximately 0.58
